This is an account of results in US20230349919A1.

Numbering of substitutions follows the chain as printed.

First the molecules themselves.
B1: Table 1 Line # 48 antibody (SP_Plasma_cell) (antibody, human IgG4, V domains shown)
VH: EVQLVESGGVLVQPGRSLRLSCAASGFTFDDFAMHWVRQAPGKGLEWVSGISWNGNSIGYADSVKGRFTISRDNAKNSLYLQMNSLRTEDTALYYCAKDTSSWSYYYGMDVWGQGTTVTVSS
VL: DIQMTQSPSSLSASVGDRVTITCRASQGIRNDLGWYQQKPGKAPKRLIYAASNLQSGVPSRFSGSGSGTEFTFTISSLQPEDFATYYCLQHNSYPYTFGQGTKLEIK
B2: Table 1 Line # 38 antibody (SP_B_cell) (antibody, human IgG4, V domains shown)
VH: EVHLVESGGGLAKPGGSLRLSCTASGFTFSTYNLNWVRQAPGKGLEWVSYISRSSVYIYYADSLKGRFTISRDDAKNSLYLQMNSLRAEDTAVYYCVRDDYGDYVPLDYWGQGTLVTVSS
VL: AIQMTQSPSSLSASVGDRITITCRASQGISNDLGWYQQKPGKAPKLLIFAASSLQSGVLSRFSGSGSGTDFTLTISSLQPEDVATYFCLQDYNFPRTFGQGTKVEIK
B3: Table 1 Line # 47 antibody (SP_Plasma_cell) (antibody, human IgG4, V domains shown)
VH: ELQLVESGGGLVQPGRSLRLSCAASGFPFDAYAMHWVRQAPGKGLQWVSGIRWNGGNIDYVDSVKGRFTISRDNAKNSLYLQLNSLRSEDTALYYCAKDLGGSHYALDVWGQGTMVTVSS
VL: DIQMTQSPSSLSASVGARVTITCRASQSINNDLNWYQQKPGKAPKFLIYAASSLQSGVPSRFSGRGSGTDFTLTIRSLQPEDFAVYYCQQTYSSPFTFGPGTKVDLK
B4: Table 1 Line # 30 antibody (SP_B_cell) (antibody, human IgG4, V domains shown)
VH: EVQLVESGGGMVQPGRSLRLSCAASGFTFDDYAMHWVRQAPGKGLEWVSGIKWNGGNIGYADSVKDRFTISRDNAKNSLFLQMNSLRAEDAALYSCAKDIGGSQYALDVWGQGTTVTVSS
VL: DIQMTQSPSSLSASVGDRVTITCRASLSIGSYLNWYQKKPGKAPKLLIFVASSLQGGVSSRFSGSGSGTDFTLTISSLQPEDFATYYCQQTYSTPFTFGPGTKVDIK
B5: Table 1 Line # 50 antibody (SP_Plasma_cell) (antibody, human IgG4, V domains shown)
VH: EVKLLESGGGLVQPGGSLRLSCAASGFSFSTYAMNWVRQAPGKGLEWVSAITGSGGSTYYADSVKGRFTMSRDNSKNTLYLQMNSLRAEDTAVYYCAKDRRGAFDIGGQGTMVTVSS
VL: DIQMTQSPSSVSASVGDRVTITCRASQGISSWLAWYQQKPGKVPKFLIYAASNLQSGVPSRFSGSGSGTDFTLTISSLQPEDFATYYCQQANSFPFTFGPGTKVDIK
B6: Table 1 Line # 39 antibody (SP_B_cell) (antibody, human IgG4, V domains shown)
VH: EVQLVESGGDLVQPGRSLRLSCAASGFTFDDYAMYWVRQTPGKGLEWVSRITWNSGSIGYAGSVQGRFTISRDNAKNSLYLQMNSLRAEDSALYYCAKDIGGSYLGFDYWGQGTLVTVSS
VL: EIVLTQSPGTLSLSPGERVTLSCRASQSVSATYFAWYQQKPGQPPRLLIYGASNRATGIPDRFSGSGSGTDFTLTISRLEPEDFAVYYCQQNGNSYTFGQGTILEIK
B7: Table 1 Line # 22 antibody (SP_B_cell) (antibody, human IgG4, V domains shown)
VH: B6 VH with D10G, T40I, R50G, A88V, S91T, T114A
VL: B6 VL with I2T, A31S, F34L, P44A, N92Y, N94S, I103K
B8: Table 1 Line # 33 antibody (SP_B_cell) (antibody, human IgG4, V domains shown)
VH: EVQLLESGGGLVQPGGSLRLSCAASRFTFSNYEMNWVRQAPGKGLEWLSYINTSGTTIYYADSVKGRFTISRDNAKNSLYLQMNSLRAEDTAVYYCARVNWNSDAFDIWGQGTMVTVSS
VL: EIVMTQSPATLSVSPGERATLSCRASQIVGSNLAWYHQKPGQAPRLLIYSASTRATGIPARFSGSGSGTEFTLTISSLQSEDFAVYYCQQYNNWPPFTFGPGTKVDIK
B9: Table 1 Line # 54 antibody (SP_Plasma_cell) (antibody, human IgG4, V domains shown)
VH: QVQLVQSGAEVKKPGASVKVSCKASGYTFTNYGISWVRQAPGQGLEWMGWISVYNGNTNYAQKLQGRVTMTTDTSTSTAYMEVRSLRSDDTAVYYCARGVNWNYVFDYWGQGTLVTVSS
VL: B1 VL with A50V, A51V, N53S, F73L, Y96W, L104V
B10: Table 1 Line # 53 antibody (SP_Plasma_cell) (antibody, human IgG4, V domains shown)
VH: EIQLVESGGGLVQPGRSLRLSCAASGFTFDDYAMHWVRQAPGKGLEWVSGINWNNGSLGYADSVKGRFTISRDNAKNSLYLQMNSLRTEDTALYYCVKDTGSWASYYGMDVWGHGTTVTVSS
VL: B1 VL with V15I, N53S, F73L
B11: Table 1 Line # 11 antibody (BM_Plasma_cell) (antibody, human IgG4, V domains shown)
VH: EVQLVESGGGLVQPGRSLRLSCAASGFTFDDYAMHWVRQAPGKGLEWVSGISWNSGSIGYADSVKGRFTISRDNAKNSLYLQMNSLRAEDTALYYCARDYSSAWYGYFDSWGQGTLVTVSS
VL: DIQMTQSPSSLSASVGDRVTITCRASQGINNYLAWYQQKPGKIPKLLIFTASTLQSGVPSRFSGSGSGTDFTLTINSLQPEDVATYYCQNYNSVPRTFGQGTKVEIK
B12: Table 1 Line # 15 antibody (BM_Plasma_cell) (antibody, human IgG4, V domains shown)
VH: B11 VH with G10A, T28A, S55G, G56A, I58L, V64L, A88S, Y94F, S110Y
VL: B11 VL with G28D, N30S, I43V, F49Y, T50A, N76S, E81Q
B13: Table 1 Line # 12 antibody (BM_Plasma_cell) (antibody, human IgG4, V domains shown)
VH: QVQLVESGGGVVQPGRSLRLSCAASGFTFSSYGMHWVRQAPGKGLEWVSVISYDGSNKYYADSVKGRFTISRDNSKNTLFLQVNSLRAEDTAVYYCAKEGRTGFDYWGQGTLVTVSS
VL: B11 VL with S26R, N30S, Y36F, I43V, F49Y, T50A, N76S, N90K, V94A, R96W
B14: Table 1 Line # 49 antibody (SP_Plasma_cell) (antibody, human IgG4, V domains shown)
VH: EVHLLESGGGFIQPGGSLRLSCAASGFTFSTYAMNWVRLAPGKGLEWVSTISGSGGFTSYTDSVQGRFTISRDNSKNKLYLQINNLTAEDTAVYYCAKDRRIVGATGFDYWGQGALVTVSS
VL: DIQMTQSPSSLSASAGDRVTITCRASQSISSYLNWYQQKPGKAPKLLIYAASSLQSGVPSRFSGSGSGTDFTLTISSLQPEDSATYYCQQSYGFHTFGQGTRLEIK
B15: Table 1 Line # 18 antibody (BM_Plasma_cell) (antibody, human IgG4, V domains shown)
VH: EVQLVQSGAEVKKPGESLKISCKGSGYRFTTNWIGWVRQMPGKGLEWMGIIYPDDSDTRYSPSFQGQVTISADKSINTAYLHWNSLKSSDTAIYYCARGANWFDPWGQGTLVTVSS
VL: EIVLTQSPGILSLSPGKRATLSCRASQSVSSNFLAWYQQKPGQAPRLLIYGTSSRANGIPDRFSGSGSGTDFTLTISGLEPEDFAEYYCQQYGSSVTFGQGTRLEIK
B16: Table 1 Line # 3 antibody (BM_Plasma_cell) (antibody, human IgG4, V domains shown)
VH: EVQLVESGGGLVQPGRSLRLSCAASGFTFDDYAMHWVRQVTGKGLEWVSGINWNSGNIGYADSVRGRFTISRDNAKNSLYLQMNSLRAEDTALYYCAKDSGSSWYGYFDLWGRGTLVTVSS
VL: DIQMTQSPSTLSASVGDRVTITCRASQSISRWLAWYQQKPGKAPKFLIYKASSLESGVPSRFSGSGSGTEFTLTISSLQPDDFATYYCQQYNSDSRTFGQGTKVEIK
B17: Table 1 Line # 37 antibody (SP_B_cell) (antibody, human IgG4, V domains shown)
VH: QVHLVESGGDVVQPGRSLRLSCAASGFTFSYYGMHWVRQAPFKGLEWVAVIWYDGSNKYYADSVKGRFTITRDNSKNTVYLQMNSLRAEDTAIYYCARWGGFGVTGTHLDYWGQGTLVTVSS
VL: DIQLTQSPSLLSASVGDRVTITCWASQDIAGHFAWYQQKPGTVPKLLIYAISTLDSGVPSRFSGSRSGTEFTLTISSLQPEDFATYYCQHLNSYPYTFGQGTKLEIK
B18: Table 1 Line # 35 antibody (SP_B_cell) (antibody, human IgG4, V domains shown)
VH: EVQLVESGGGLVKPGGSLRLSCAASGFTFSSYSMNWVRQAPGKGLEWVSSISSSSSYIYYADSVKGRFTISRDNAKNSLYLQMNSLRAEDTAVYYCARDRSSSPLENWGQGTLVTVSS
VL: B5 VL with V43A, F46L, N53S, F96I, P100Q, K103R, V104L, D105E
B19: Table 1 Line # 1 antibody (BM_Plasma_cell) (antibody, human IgG4, V domains shown)
VH: EVQLVESGGGLVKPGGSLRLSCAASGFTFSSYSMNWVRQAPGKGLEWVSSISSSSSYIYYADSVKGRFTISRDNAKNSLYLQMNSLRAEDTAVYYCASLAARPFWGQGTMVTVSS
VL: B5 VL with K42R, V43A, F46L, N53S, F96L, P100G, D105E
B20: Table 1 Line # 46 antibody (SP_Plasma_cell) (antibody, human IgG4, V domains shown)
VH: EVQLEASGGDLVQPGRSLRLSCAASGFIFDDFGMHWVRQAPGKGLEWVSGISWNGGHIGYADSVKGRFTISRDNAKNSLYLQMNSLRAEDTALYYCAKEHSSSWYGFFDFWGRGTLVTVSS
VL: DIQMTQSPSSLSASVGDRVTITCRASQGLSNSVAWYQQKPGQIPRLLISAAASLQSGVPSRFSGSGSGTDFTLTISRLQPEDVATYYCQNYNSAPRTFGQGTNVEIK
B21: Table 1 Line # 40 antibody (SP_Plasma_cell) (antibody, human IgG4, V domains shown)
VH: QVQLQESGPGLVKPSETLSLTCTISGGSISTYYWSWIRQPPGKGLEWIGYIYYSGNTNYNPSLKSRVTISVDTSKNQFSLKLNSVTAADTAVYYCARHRGSYVYGMDVWGQGTTVTVSS
VL: DIQMTQSPSSLSASLVDRVTITCRASQTISSYLNWYQQKPGKAPKLLIYGASILQSGVPSRFSGSGSGTDFTLTISSLQPEDHAVYFCQQSYSSPTFGGGTKVEIK

The first assay addresses human IL-4Rα (hIL-4Rα) monomeric protein (human) (UniProt P24394). Description: barcoded-antigen count on source cell (scRNA-seq).
The molecule B1 registered an REGN560.L15 ab raw of 1240 counts.

Take B2: the REGN560.L15 ab raw stood at 6050 counts.

The molecule B3 displayed an REGN560.L15 ab raw of 1520 counts.

As for B4, the REGN560.L15 ab raw stood at 9180 counts.

For the molecule B5, the REGN560.L15 ab raw turned out to be 924 counts.

B6 returned an REGN560.L15 ab raw of 3560 counts.

The molecule B7 came in with an REGN560.L15 ab raw of 14000 counts.

Molecule B8 gave an REGN560.L15 ab raw of 7340 counts.

The target in a further assay is human IL-6Rα (hIL-6Rα), barcoded negative control antigen (human) (UniProt P08887). As to the kind of experiment: barcoded-antigen count on source cell (scRNA-seq).
Chain of human IL-6Rα (hIL-6Rα), barcoded negative control antigen (human) (P08887 20-358 limits assumed): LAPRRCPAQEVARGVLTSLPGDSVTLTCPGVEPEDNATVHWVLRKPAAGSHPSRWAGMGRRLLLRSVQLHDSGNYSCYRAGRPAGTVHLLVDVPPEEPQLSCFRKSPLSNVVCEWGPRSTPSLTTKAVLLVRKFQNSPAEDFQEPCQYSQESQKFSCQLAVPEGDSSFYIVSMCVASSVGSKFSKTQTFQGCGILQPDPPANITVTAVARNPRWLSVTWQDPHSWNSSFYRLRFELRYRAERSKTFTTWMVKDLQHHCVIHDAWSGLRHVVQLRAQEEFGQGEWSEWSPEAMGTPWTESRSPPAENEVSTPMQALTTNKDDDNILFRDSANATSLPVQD
In the case of B1, the REGN78.L15 ab raw worked out at 17 counts.

B9 registered an REGN78.L15 ab raw of 26 counts.

B10 had an REGN78.L15 ab raw of 5 counts.

Take B11: the REGN78.L15 ab raw worked out at 115 counts.

Regarding B12, the REGN78.L15 ab raw came out at 158 counts.

In the case of B13, the REGN78.L15 ab raw amounted to 348 counts.

In the case of B2, the REGN78.L15 ab raw was 66 counts.

Turning to B14, the REGN78.L15 ab raw was 2 counts.

Consider B15, for which the REGN78.L15 ab raw is 55 counts.

As for B16, the REGN78.L15 ab raw was found to be 236 counts.

As for B3, the REGN78.L15 ab raw worked out at 6 counts.

B17 returned an REGN78.L15 ab raw of 60 counts.

Turning to B4, the REGN78.L15 ab raw turned out to be 179 counts.

With B18, the REGN78.L15 ab raw came to 33 counts.

For the molecule B19, the REGN78.L15 ab raw was 271 counts.

In the case of B6, the REGN78.L15 ab raw was 17 counts.

In turn, B7 registered an REGN78.L15 ab raw of 5 counts.

Turning to B20, the REGN78.L15 ab raw is 2 counts.

In turn, B8 gave an REGN78.L15 ab raw of 106 counts.

In the case of B21, the REGN78.L15 ab raw amounted to 1 counts.
